According to the nanobody polyreactivity screen of Harvey et al. (2022):

Assay: yeast display, Sf9 membrane polyspecificity reagent, FACS + sequencing; frameworks hold sequencing errors
Outline: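 Nanobodies came from a synthetic yeast display library in Saccharomyces cerevisiae BJ5465, induced with galactose for 36–48 hours and stained for 1 hour at 4 °C with 10% biotinylated, detergent-solubilized Sf9 membrane reagent. Cells were enriched on streptavidin microbeads and then FACS-sorted, with low and high (top ~1%) gates set on anti-HA fluorescence for expression and streptavidin fluorescence for reagent binding. Each polyreactivity label reflects the gate a clone came from. Genes were amplified by colony PCR, sequenced by MiSeq 2 × 250 and filtered by CDR length.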

Sequence	polyreactivity (PSR sort gate)
QVQLVESGGGLVQAGGSLRLSCAASGRIFVVNAMGWYRQAPGKERELVATITRGASTYADSVKGRFTISRDNAKNTVYLQMNSLKPEDTAVYYCAARSGSWGQGTQVTVSS	high polyreactivity
QVQLVESGGGLVQAGGSLRLSCAASGRIFVVNAMGWYRQAPGTERELVAAITRRGGSTYADSVKGRFTISRDNAKNTVYLQMNSLKPEDTAVYYCNAESYYGIFRYKYDYWGQGTQVTVSS	high polyreactivity
QVQLVESGGGLVQAGGSLRLSCAASGRIFVVNDMGWYRQAPGKERELVAAMNSGGRTNYADSVKGRFTISRDNAKNTVYLQMPSLKPEDTAVYYCNAKRTGPWFLHVPVYYWGQGTQVTVSS	low polyreactivity
QVQLVESGGGLVQAGGSLRLSCAASGRIFVVYAMGWYRQAPGKESELVATISGGSTNYADSVKGRFTISRDNAKNTVYLQMNSVKPDDTAVYYCGMEYWGQGTQVTVSS	low polyreactivity
QVQLVESGGGLVQAGGSLRLSCAASGRIFVVYTMRWYRQAPGNERELVASIRGSGDSTNYADSVKGRFTISRDNAKNTVYLQMNSLKPEDTAVYYCAADLPWSRRYSYRYGYWGQGTQVTVSS	low polyreactivity
QVQLVESGGGLVQAGGSLRLSCAASGRIFVYNAMGWYRQAPGKERELVAAISKGGGSTYYADSVKGRFTISRDNAKNTVYLQMNSLKPEDTAVYYCAAVVSGRYWGKKITYDYWGQGTQVSVSS	high polyreactivity
QVQLVESGGGLVQAGGSLRLSCAASGRIFVYNTMGWYRQAPGKERELVAAITSGGNTYYADSVKGRFTISRDNAKNSVYLQMNSLKPEDTAVYYCNAYPGYDPYRRYDYWGQGTQVTVSS	high polyreactivity
QVQLVESGGGLVQAGGSLRLSCAASGRIFVYYAMGWYRQAPGKERELVAAITSGGGSTYYADSVKGRFTISRDNAKNTVYLQMNSLKPEDTAVYYCNKGYYYPYDYWGQGTQVTVSS	high polyreactivity
QVQLVESGGGLVQAGGSLRLSCAASGRIFVYYAMGWYRQAPGKERELVAAMNAGGSTNYADSVKGRFTISRDNAKNNVYLQMYSLKPEDTAVYYCAAVRRSRYSYRGYYWGQGTQVTVSS	high polyreactivity
QVQLVESGGGLVQAGGSLRLSCAASGRIFVYYAMGWYRQAPGKERELVATISSGGSTYYADSVKGRFTISRDNAKNTVYLQMNSLKPEDTAVYYCAADNVNRYLAYYYKGDYWGQGTQVTVSS	low polyreactivity
QVQLVESGGGLVQAGGSLRLSCAASGRIFWANAMGWYRQAPGKERELVATISRSGGTTYYADSVKGRFTISRDNAKNTVYLQMNSLKPEATAVYYCAAEDWSLYDYGDRLWYSPYYYWGQGTQVTVSS	high polyreactivity
QVQLVESGGGLVQAGGSLRLSCAASGRIFWDNAMGWYRQAPGKERELVAAISDSVVITYYADSVKGRFTISRDNAKNTVYLQMNSLKPEDTAVYYCNTDARYDEYDEFDYWGQGTQVTVSS	low polyreactivity
QVQLVESGGGLVQAGGSLRLSCAASGRIFWDNAMGWYRQAPGKVRELVAVMNSGDSTNYADSVKGRFTISRDNAKNTVYLQMNSLKPEDTAVYYCATDFIGVIYDYWGQGTQVTVSS	low polyreactivity
QVQLVESGGGLVQAGGSLRLSCAASGRIFWDYAMGWYRQAPGKERELVAGISYSGGSTSYADSVKGRFTISRDNAKNTVYLQMNSLKPEDTAVYYCAARPSGTFFRDYDYWGQGTQVTVSS	low polyreactivity
QVQLVESGGGLVQAGGSLRLSCAASGRIFWGSAMGWFRQAPGKERELVAAITRSGGRTYYADSVKGRFTISRDNAKNTVYLQRNSLKPDDTPVYYCAAYYWYKWGYKYGYWGQGTQVTVST	high polyreactivity
QVQLVESGGGLVQAGGSLRLSCAASGRIFWGYAMGWSRQAPGKERELVAGITYSGGSTYYADSVKGRFTISRDNAKNTVYLQMNSLKPEDTAVYYCAAAKSYRSGSWYEYWGQGTEVTVSS	high polyreactivity
QVQLVESGGGLVQAGGSLRLSCAASGRIFWGYAMGWYRQAPGKERELVAAISSGGSTNYADSVKGRFTISRDNAKNTVYLQMNSLKPEDTAVYYCAKDHAYTSAPHQYASEYYYWGQGTQVTVSS	low polyreactivity
